Source: patent US20100124555A1, “Compositions and Methods for Treating Pancreatic Tumors” (UNIVERSITE DE LA MEDITERRANEE, priority 2007, published 2010)

Key:
[1] = system: PANC-1 cells; assay: MTT cell growth and proliferation assay, PANC-1; format: cell-based, human; details: PANC-1, increasing concentrations of antibody, 24 h
Procedure: Cell proliferation was determined using MTT assay as previously described (Mosmann et al., 1983 J Immunol Methods, 65(1-2):55-63). Briefly, cells were seeded at subconfluence in appropriate complete media containing 10% FCS in 96-well culture plates. Media were replaced for 24 h by fresh media with 10% inactivated FCS, including increasing concentrations of antibodies directed against FAPP (pAbL64, mAbJ28 and mAb16D10). Cells were washed with PBS and incubated with 100 μl of MTT (0.5 mg/ml) in complete media for 3 h, washed with PBS and finally incubated with DMSO for 30 min at 37° C. Cell growth was determined by measuring absorbance at 550 nm using a MR 5000 microplate spectrophotometer. All independent determinations were done in triplicate and compared to control.

[2] = system: E-cadherin in PANC-1 cells; assay: Immunofluorescence of E-cadherin, PANC-1; format: cell-based, human; details: PANC-1 treated or not with mAb16D10
[3] = system: cell surface antigens of fixed SOJ-6 cells; assay: FACS cell surface binding stability on fixed SOJ-6 cells; set-up: species or system human; details: preliminary FACS experiments
Source text: Taking in account that most of the antibodies that have been studied so far at Innate Pharma, have kon rate association constants ranging from 5×10^5 to 5×10^6 M^−1s^−1, one can estimate that the recombinant 16D10 antibody bivalent affinity is in the nanomolar order (e.g., 10 to 1 nanoM) which is compatible with the industrial development of a therapeutic antibody.

[4] = Tissue cross-reaction study (staining of healthy tissues); details: non-specific crossreactivity
Procedure: The staining specificity of the IgM 16D10 and chimeric IgG rec16D10 antibodies was assessed by examining their respective staining of various healthy tissues. […] Staining with the chimeric antibody reel 6D10, in contrast, was negative on each of these healthy tissues.

[5] = system: 16D10 antigen on SOJ-6 cells; assay: Flow cytometry detection of antigen at the cell surface, SOJ-6; format: binding, human
Procedure: Detection of antigens at the surface of SOJ-6 and PANC-1 cells was carried out by indirect fluorescence under the following conditions: cells were released from culture plates by treatment with a non enzymatic dissociation liquid (Calbiochem) for 15 minutes at 37° C. All subsequent steps were carried out at 4° C. The cells were washed with phosphate buffered saline (PBS), fixed with 2% paraformaldehyde in PBS for 15 minutes, and washed with 1% BSA in PBS for 15 minutes. Antigens were exposed for 2 hours to specific antibodies, washed with PBS, and finally incubated for 45 minutes with appropriate FITC-labeled secondary antibodies. Cells were then washed, resuspended in isoflow buffer, and analyzed on Coulter FACSCalibur device.
Flow cytometry experiments were carried out to investigate whether the antigen recognized by 16D10 was found on the surface of cells. Results are shown in FIGS. 14 and 15, representing SOJ-6 and PANC-1 cells, respectively. […] In each case, 16D10 binding was compared to a negative control and a control mouse IgM (Sigma).

[6] = system: SOJ-6 cells; assay: Annexin V / PI apoptosis assay; format: cell-based, human; details: antibodies 20 μg/ml, tunicamycin 25 or 50 μg/ml
Procedure: SOJ-6 cells (20.10^4 cells per well) were seeded onto 24 wells plates 72H before to start the experiment. Cells were incubated either with 20 μg/ml 16D10 IgM, or 20 μg/ml of a further recombinant 16D10 IgG1 antibody which contained the 16D10 variable regions linked fused to a human IgG1 constant region and human kappa light region for the heavy and light chains respectively, 25 μg/ml Tunicamycin or 50 μg/ml Tunicamycin. The AnnexinV/PI stainings were performed after 24H of culture using the AnnexinV-FITC Apoptosis Detection Kit I (BD Pharmingen) according to the manufacturer instructions. Stainings were acquired on a FACScan (Becton Dickinson, San Jose, Calif.) and results were analysed using FlowJo Software.

[7] = system: SOJ-6 cells; assay: Effect of antibodies on SOJ-6 cell proliferation (Example 11); format: cell-based, human
Procedure: The effects of the IgM antibody 16D10 and the chimeric antibody rec16D10 on the proliferation of SOJ-6 cells were examined. Cells were incubated in culture with no antibodies, with various amounts of 16D10 or rec16D10 antibodies, or with an irrelevant IgG antibody. Antibody 16D10 reduced cell proliferation by approximately 50% at either 25 or 50 μg/ml, while rec16D10 reduced proliferation by more than 20% and more than 35% at 25 and 50 μg/ml, respectively (FIG. 18).

[8] = system: p53, cyclin D1, GSK-3β in SOJ-6 cells; assay: Western blot of cell cycle regulatory proteins; format: cell-based, human
Procedure: SOJ-6 cells were grown in 6-well culture plates in RPMI 1640 medium with 10% FCS. At subconfluency, the medium was removed and replaced for 24 hours by fresh RPMI medium with 10% inactivated FCS. SOJ-6 cells were then incubated with mAb16D10 or Cisplatin for 24 hours. At the end of incubation, cells were washed three times with ice-cold PBS (without […] and Mg^++) harvested and pelleted by centrifugation. Pellets were washed twice and lysed at 4° C. in 0.5 ml of lysis buffer (10 mM Tris-HCl pH 7.4, 150 mM NaCl, 1% Triton X-100, 1 mM benzamidine and phosphatase inhibitors). After lysis, homogenates were clarified by centrifugation at 10,000 g for 10 min at 4° C. An aliquot was saved for protein determination using the bicinchoninic acid assay (Pierce, Rockford, Ill.). Proteins (50 μg/lane) in reducing SDS buffer were separated onto 10, 12, or 15% polyacrylamide with 0.1% SDS (according to the molecular weight range of proteins to be separated). After electrophoretic migration, proteins were silver stained. Alternatively, proteins were transferred onto nitrocellulose membranes using a Mini Transblot electrophoretic cell (BioRad, Hercule, Oreg.), and transferred proteins were immunodetected by using appropriate primary and secondary antibodies. After washes, membranes were developed with a chemoluminescent substrate according to the manufacturer's instructions (Roche Diagnostics, Switzerland). In each experiment, a control was included by omitting primary antibodies or by using a non-immune serum.
The expression of different cell cycle regulatory proteins, specifically p53 and cyclin D1, was next analyzed. […] Since cyclin D1 expression may be directly regulated by GSK-3β (Diehl et al., 1998 Genes Dev. 12(22):3499-511), we next focused on the expression level of this kinase in SOJ-6 cells once challenged with mAb16D10.

B1: 16D10: IgM monoclonal antibody recognizing FAPP/BSDL; producing cells deposited with the CNCM under the number I-3188 (antibody, listed as Mus musculus, V domains shown)
VH: QVQLQQSDAELVKPGASVKISCKASGYTFTDHAIHWVKQKPEQGLEWIGYISPGNDVIKFNEKFKGKATLTADKSSSTAYMQLNSLTSEDSAVYFCKRSEGGVFDYWGQGTTLTVS
VL: NIMMTQSPSSLAVSAGEKVTMSCKSSQSVLYSSNQKNFLAWYQQKPGQSPKLLIYWASTRESGVPDRFTGSGSGTDFTLTISSVQAEDLAVYYCHQYLSSYTFGGGTKLEIK
- % growth of cells [1]: unable to cause a decrease in growth or number of PANC-1 cells
- E-cadherin at the plasma membrane [2]: did not express E-cadherin at their plasma membrane
- stability of staining on fixed SOJ-6 cells [3]: seemed stable
- staining of healthy tissues (tonsils, salivary gland, peripheral nerve, eyes, bone marrow, ovary, oviduct, parathyroid, prostate, spleen, kidney, adrenals, testes, thymus, ureters, uterus, bladder) [4]: positive staining
- effect of trypsin incubation on binding to SOJ-6 cells ([5]; antibody incubated with trypsin): substantially decrease the binding
- binding to antigen on SOJ-6 cells ([5]; flow cytometry / FACS): found to bind antigen present on SOJ-6 cells
- apoptosis by Annexin V and Annexin V/PI staining [6]: induced significant levels of apoptosis
- reduction of SOJ-6 cell proliferation ([7]; 25 μg/ml): approximately 50%
- reduction of SOJ-6 cell proliferation ([7]; 50 μg/ml): approximately 50%
- expression of cyclin D1 [8]: decreased that of cyclin D1
- expression of p53 [8]: increased the expression of p53
- expression of total GSK-3β [8]: constant
- phospho-GSK-3β (inactive form) [8]: a decrease in the phospho-GSK-3β
